Drawing on PMC10816986, “The Role of Key Amino Acids of the Human Fe(II)/2OG-Dependent Dioxygenase ALKBH3 in Structural Dynamics and Repair Activity toward Methylated DNA” (International Journal of Molecular Sciences, 2024), this text covers Kd for five molecules.

The nature of test [1]: Equilibrium fluorescence titration with Fe(II). It counts as binding. The settings on record: 1 µM apoprotein, 25 °C; read-out: Dissociation constant Kd, Fe(II). The text has this: (§1) To investigate the impact of selected mutations on ALKBH3’s ability to bind its cofactor, co-substrate, and methylated DNA, the fluorescent titration method was employed. It is well-established that enzyme–ligand binding typically leads to a protein conformational change, which in turn can alter the fluorescence intensity of tryptophan and tyrosine residues within the protein sequence. […] In this study, transitional metals (Fe(II), Ni(II), and Co(II)), 2OG, and the m3C substrate served as titrants. Protein fluorescence quenching was measured after the addition of an excess of the ligand to 1 µM of enzyme (Supplementary Figure S2). To determine the equilibrium dissociation constant’s Kd values, the resulting titration curves were analyzed using a non-linear regression algorithm (see Section 4.3 of “Materials and Methods” for details). […] As indicated by the data presented in Table 2, the stability of the wt ALKBH3 apoenzyme’s affinity to various ligands and damaged DNA generally corresponds to the stability of such complexes for AlkB and ALKBH2 enzymes. […] The binding of Ni(II) and Co(II) ions of similar radii was weakened by approximately two-fold. […] This behavior is more characteristic of the bacterial homolog AlkB rather than human ALKBH2 [7].
(§2) The intrinsic tryptophan fluorescence quenching was monitored at the maximum of emission (345 nm, in most cases) using an excitation wavelength of 280 nm, and 5 nm slits. An amount of 2 mM of (NH4)2Fe(SO4)2·6H2O, 2 mM of NiSO4×7H2O, 2 mM of CoSO4·7H2O, 2 mM of 2OG, or 100 µM of m3C substrate was titrated into 1 µM of apoprotein (a free enzyme with no metal or 2OG added) in the presence of 50 mM of HEPES-KOH (pH 7.8), 50 mM of KCl, and 10 mM of MgCl2. When titrating with DNA, the buffer was supplemented with 2 mM of EDTA. The dissociation constant Kd for a model of one-step binding (E + L ↔ EL) was determined using Equations (2)–(5) and a non-linear regression algorithm in the OriginPro 8.1 software (OriginLab Corp., Northampton, MA, USA):(2) Kd=E[L]/[EL] (3) F=f0+f1E+f2[EL] (4) e0=E+[EL] (5) l0=L+[EL] where F is the observed fluorescence intensity at any given ligand (L) concentration; f0 is the background fluorescence; f1 and f2 are partial fluorescence intensities of the free enzyme (E) and enzyme–ligand complex (EL), respectively; e0 and l0 are total concentrations of the enzyme and ligand.
(§3) Figure S2. Equilibrium binding of the wild-type and mutant ALKBH3 proteins to transition metals, 2OG, or m3C-containing DNA. The quenching of the enzyme ﬂuorescence is shown as a function of Fe(II) (A), Ni(II) (B), Co(II) (C), 2OG ( D), and single-stranded m3C substrate (E). The protein concentration was 1 µM. In the course of titration by Fe(II), a sodium ascorbate (1mM) was added to keep the metal in a reduced state. Experimental data points were ﬁtted to a single-site binding mode l (see “Materials and Methods”). Each trace represents the average of three technical […]
(§4) (1 picture or pasted object on this page, not shown here)

Test [2] can be described thus: Equilibrium fluorescence titration with Ni(II). It counts as binding. Conditions: 1 µM apoprotein, 25 °C; read-out: Dissociation constant Kd, Ni(II).
Excerpt: as §1, §2, §3, §4

Substitutions are numbered along the chain they refer to. In names and notes the source's numbering stands.

B1: wt ALKBH3: wild-type human Fe(II)/2OG-dependent dioxygenase ALKBH3 with N-terminal His-tag, expressed in E. coli (protein, UniProt Q96Q83 1-286, looked up)
Alpha-ketoglutarate-dependent …: MEEKRRRARVQGAWAAPVKSQAIAQPATTAKSHLHQKPGQTWKNKEHHLSDREFVFKEPQQVVRRAPEPRVIDREGVYEISLSPTGVSRVCLYPGFVDVKEADWILEQLCQDVPWKQRTGIREDITYQQPRLTAWYGELPYTYSRITMEPNPHWHPVLRTLKNRIEENTGHTFNSLLCNLYRNEKDSVDWHSDDEPSLGRCPIIASLSFGATRTFEMRKKPPPEENGDYTYVERVKIPLDHGTLLIMEGATQADWQHRVPKEYHSREPRVNLTFRTVYPDPRGAPW
modifications: N-terminal His-tag
notes: wild-type human Fe(II)/2OG-dependent dioxygenase ALKBH3 with N-terminal His-tag, expressed in E. coli
As usually defined, the Kd is the equilibrium constant for the complex coming apart. Consider B1, for which the Kd worked out at 25 ± 2 µM in test [1] and 42 ± 4 µM in test [2].

B2: Y143A ALKBH3: ALKBH3 mutant, Tyr143 replaced with Ala (protein, UniProt Q96Q83 1-286, looked up, variant Y143A)
Alpha-ketoglutarate-dependent …: B1 Alpha-ketoglutarate-dependent … with Y143A
For B2, the equilibrium dissociation constant (Kd) worked out at 25 ± 3 µM in test [1] and 60 ± 7 µM in test [2].

B3: L177A ALKBH3: ALKBH3 mutant, Leu177 replaced with Ala (protein, UniProt Q96Q83 1-286, looked up, variant L177A)
Alpha-ketoglutarate-dependent …: B1 Alpha-ketoglutarate-dependent … with L177A
As for B3, the results for the dissociation constant Kd in test [1] and in test [2] were 24 ± 2 µM and 90 ± 10 µM, respectively.

B4: H191A ALKBH3: ALKBH3 mutant, His191 replaced with Ala (protein, UniProt Q96Q83 1-286, looked up, variant H191A)
Alpha-ketoglutarate-dependent …: B1 Alpha-ketoglutarate-dependent … with H191A
Turning to B4, the Kd is 20 ± 2 µM in test [1] and 50 ± 4 µM in test [2].

B5: Y143F ALKBH3: ALKBH3 mutant, Tyr143 replaced with Phe (protein, UniProt Q96Q83 1-286, looked up, variant Y143F)
Alpha-ketoglutarate-dependent …: B1 Alpha-ketoglutarate-dependent … with Y143F
Take B5: the figures for the Kd in test [1] and in test [2] were 23 ± 2 µM and 42 ± 3 µM, respectively.
